Data as given in the Human Domainome abundance scans (Beltran et al. 2025).
± gives the uncertainty stated by the source.

B1: Tumor protein 63, residues 545 to 610; numbered along this chain, Q9H3D4 (parent)
chain: TDCSIVSFLARLGCSSCLDYFTTQGLTTIYQIEHYSMDDLASLKIPEQFRHAIWKGILDHRQLHEF

Variants of: B1
Assay: abundance fitness (aPCA) (normalised: wild type 0, dead -1); higher = more abundant; growth selection in yeast, the domain comes from the species named
Conditions: Homo sapiens

Variant	abundance fitness
TDCSIVSFLARLGCSSCLDYFTTQGLTTIYQIEHYSMDDLASLKIPEQFRHAIWKGILDHRQAHEF [L63A]	0.029 ± 0.029
TDCSIVSFLARLGCSSCLDYFTTQGLTTIYQIEHYSMDDLASLKIPEQFRHAIWKGILDHRQQHEF [L63Q]	-0.016 ± 0.033
TDCSIVSFLARLGCSSCLDYFTTQGLTTIYQIEHYSMDDLASLKIPEQFRHAIWKGILDHRQPHEF [L63P]	-0.008 ± 0.043
TDCSIVSFLARLGCSSCLDYFTTQGLTTIYQIEHYSMDDLASLKIPEQFRHAIWKGILDHRQNHEF [L63N]	-0.04 ± 0.034
TDCSIVSFLARLGCSSCLDYFTTQGLTTIYQIEHYSMDDLASLKIPEQFRHAIWKGILDHRQRHEF [L63R]	-0.045 ± 0.023
TDCSIVSFLARLGCSSCLDYFTTQGLTTIYQIEHYSMDDLASLKIPEQFRHAIWKGILDHRQWHEF [L63W]	-0.054 ± 0.032
TDCSIVSFLARLGCSSCLDYFTTQGLTTIYQIEHYSMDDLASLKIPEQFRHAIWKGILDHRQDHEF [L63D]	0.004 ± 0.031
TDCSIVSFLARLGCSSCLDYFTTQGLTTIYQIEHYSMDDLASLKIPEQFRHAIWKGILDHRQGHEF [L63G]	-0.016 ± 0.018
TDCSIVSFLARLGCSSCLDYFTTQGLTTIYQIEHYSMDDLASLKIPEQFRHAIWKGILDHRQYHEF [L63Y]	-0.029 ± 0.033
TDCSIVSFLARLGCSSCLDYFTTQGLTTIYQIEHYSMDDLASLKIPEQFRHAIWKGILDHRQCHEF [L63C]	-0.01 ± 0.031
TDCSIVSFLARLGCSSCLDYFTTQGLTTIYQIEHYSMDDLASLKIPEQFRHAIWKGILDHRQMHEF [L63M]	0.025 ± 0.032
TDCSIVSFLARLGCSSCLDYFTTQGLTTIYQIEHYSMDDLASLKIPEQFRHAIWKGILDHRQEHEF [L63E]	0.009 ± 0.034
TDCSIVSFLARLGCSSCLDYFTTQGLTTIYQIEHYSMDDLASLKIPEQFRHAIWKGILDHRQTHEF [L63T]	-0.006 ± 0.03
TDCSIVSFLARLGCSSCLDYFTTQGLTTIYQIEHYSMDDLASLKIPEQFRHAIWKGILDHRQSHEF [L63S]	0.005 ± 0.022
TDCSIVSFLARLGCSSCLDYFTTQGLTTIYQIEHYSMDDLASLKIPEQFRHAIWKGILDHRQFHEF [L63F]	-0.105 ± 0.071
TDCSIVSFLARLGCSSCLDYFTTQGLTTIYQIEHYSMDDLASLKIPEQFRHAIWKGILDHRQVHEF [L63V]	-0.043 ± 0.025
TDCSIVSFLARLGCSSCLDYFTTQGLTTIYQIEHYSMDDLASLKIPEQFRHAIWKGILDHRQIHEF [L63I]	-0.034 ± 0.029
TDCSIVSFLARLGCSSCLDYFTTQGLTTIYQIEHYSMDDLASLKIPEQFRHAIWKGILDHRQKHEF [L63K]	-0.004 ± 0.052
TDCSIVSFLARLGCSSCLDYFTTQGLTTIYQIEHYSMDDLASLKIPEQFRHAIWKGILDHDQLHEF [R61D]	-0.121 ± 0.075
TDCSIVSFLARLGCSSCLDYFTTQGLTTIYQIEHYSMDDLASLKIPEQFRHAIWKGILDHPQLHEF [R61P]	-0.022 ± 0.039
TDCSIVSFLARLGCSSCLDYFTTQGLTTIYQIEHYSMDDLASLKIPEQFRHAIWKGILDHHQLHEF [R61H]	-0.1 ± 0.054

Variant	abundance fitness
TDCSIVSFLARLGCSSCLDYFTTQGLTTIYQIEHYSMDDLASLKIPEQFRHAIWKGILDHKQLHEF [R61K]	0.058 ± 0.045
TDCSIVSFLARLGCSSCLDYFTTQGLTTIYQIEHYSMDDLASLKIPEQFRHAIWKGILDHFQLHEF [R61F]	-0.037 ± 0.033
TDCSIVSFLARLGCSSCLDYFTTQGLTTIYQIEHYSMDDLASLKIPEQFRHAIWKGILDHCQLHEF [R61C]	-0.073 ± 0.04
TDCSIVSFLARLGCSSCLDYFTTQGLTTIYQIEHYSMDDLASLKIPEQFRHAIWKGILDHEQLHEF [R61E]	-0.047 ± 0.035
TDCSIVSFLARLGCSSCLDYFTTQGLTTIYQIEHYSMDDLASLKIPEQFRHAIWKGILDHAQLHEF [R61A]	-0.033 ± 0.029
TDCSIVSFLARLGCSSCLDYFTTQGLTTIYQIEHYSMDDLASLKIPEQFRHAIWKGILDHVQLHEF [R61V]	-0.067 ± 0.026
TDCSIVSFLARLGCSSCLDYFTTQGLTTIYQIEHYSMDDLASLKIPEQFRHAIWKGILDHSQLHEF [R61S]	-0.039 ± 0.028
TDCSIVSFLARLGCSSCLDYFTTQGLTTIYQIEHYSMDDLASLKIPEQFRHAIWKGILDHWQLHEF [R61W]	-0.105 ± 0.032
TDCSIVSFLARLGCSSCLDYFTTQGLTTIYQIEHYSMDDLASLKIPEQFRHAIWKGILDHNQLHEF [R61N]	-0.05 ± 0.049
TDCSIVSFLARLGCSSCLDYFTTQGLTTIYQIEHYSMDDLASLKIPEQFRHAIWKGILDHMQLHEF [R61M]	-0.077 ± 0.028
TDCSIVSFLARLGCSSCLDYFTTQGLTTIYQIEHYSMDDLASLKIPEQFRHAIWKGILDHTQLHEF [R61T]	-0.055 ± 0.031
TDCSIVSFLARLGCSSCLDYFTTQGLTTIYQIEHYSMDDLASLKIPEQFRHAIWKGILDHIQLHEF [R61I]	-0.062 ± 0.041
TDCSIVSFLARLGCSSCLDYFTTQGLTTIYQIEHYSMDDLASLKIPEQFRHAIWKGILDHRQLHCF [E65C]	-0.023 ± 0.065
TDCSIVSFLARLGCSSCLDYFTTQGLTTIYQIEHYSMDDLASLKIPEQFRHAIWKGILDHRQLHAF [E65A]	0.002 ± 0.036
TDCSIVSFLARLGCSSCLDYFTTQGLTTIYQIEHYSMDDLASLKIPEQFRHAIWKGILDHRQLTEF [H64T]	0.011 ± 0.035
TDCSIVSFLARLGCSSCLDYFTTQGLTTIYQIEHYSMDDLASLKIPEQFRHAIWKGILDHRQLGEF [H64G]	-0.035 ± 0.021
TDCSIVSFLARLGCSSCLDYFTTQGLTTIYQIEHYSMDDLASLKIPEQFRHAIWKGILDHRQLWEF [H64W]	-0.075 ± 0.04
TDCSIVSFLARLGCSSCLDYFTTQGLTTIYQIEHYSMDDLASLKIPEQFRHAIWKGILDHRQLQEF [H64Q]	0.029 ± 0.048
TDCSIVSFLARLGCSSCLDYFTTQGLTTIYQIEHYSMDDLASLKIPEQFRHAIWKGILDHRQLPEF [H64P]	-0.02 ± 0.031
TDCSIVSFLARLGCSSCLDYFTTQGLTTIYQIEHYSMDDLASLKIPEQFRHAIWKGILDHRQLFEF [H64F]	-0.064 ± 0.031
